3 proteins from publication PMC3764422, “A model of yeast glycolysis based on a consistent kinetic characterisation of all its enzymes” (Febs Letters, 2013) can be followed below.

What is called kcat is the maximal rate divided by the concentration of active sites.

Common to all, as to assay: purified protein
What all share (assay type): biochemical, Saccharomyces cerevisiae

Substrate in series [1]: CC=O
The conditions noted are these: standardised reaction buffer, 30 °C, co-substrate NADH.

Substrate in series [2]: C=C(OP(=O)(O)O)C(=O)O
The conditions noted are these: standardised reaction buffer, 30 °C, co-substrate ADP.

Substrate in series [3]: O=C(CO)COP(=O)(O)O
The conditions noted are these: standardised reaction buffer, 30 °C, measured in-house, also reported in Mendes et al. [42].

B1: Adh1p (Saccharomyces cerevisiae S288C) (protein)
chain: SIPETQKGVIFYESHGKLEYKDIPVPKPKANELLINVKYSGVCHTDLHAWHGDWPLPVKLPLVGGHEGAGVVVGMGENVKGWKIGDYAGIKWLNGSCMACEYCELGNESNCPHADLSGYTHDGSFQQYATADAVQAAHIPQGTDLAQVAPILCAGITVYKALKSANLMAGHWVAISGAAGGLGSLAVQYAKAMGYRVLGIDGGEGKEELFRSIGGEVFIDFTKEKDIVGAVLKATDGGAHGVINVSVSEAAIEASTRYVRANGTTVLVGMPAGAKCCSDVFNQVVKSISIVGSYVGNRADTREALDFFARGLVKSPIKVVGLSTLPEIYEKMEKGQIVGRYVVDTSK
notes: tagged full-length ORF, expressed in and purified from S. cerevisiae
On to B1, for which, in “purified protein [1]”, the Km is 0.462 (SEM 5.3%) mM and the turnover number (kcat) stood at 176 s⁻¹.

B2: Cdc19p (Saccharomyces cerevisiae S288C) (protein)
chain: SRLERLTSLNVVAGSDLRRTSIIGTIGPKTNNPETLVALRKAGLNIVRMNFSHGSYEYHKSVIDNARKSEELYPGRPLAIALDTKGPEIRTGTTTNDVDYPIPPNHEMIFTTDDKYAKACDDKIMYVDYKNITKVISAGRIIYVDDGVLSFQVLEVVDDKTLKVKALNAGKICSHKGVNLPGTDVDLPALSEKDKEDLRFGVKNGVHMVFASFIRTANDVLTIREVLGEQGKDVKIIVKIENQQGVNNFDEILKVTDGVMVARGDLGIEIPAPEVLAVQKKLIAKSNLAGKPVICATQMLESMTYNPRPTRAEVSDVGNAILDGADCVMLSGETAKGNYPINAVTTMAETAVIAEQAIAYLPNYDDMRNCTPKPTSTTETVAASAVAAVFEQKAKAIIVLSTSGTTPRLVSKYRPNCPIILVTRCPRAARFSHLYRGVFPFVFEKEPVSDWTDDVEARINFGIEKAKEFGILKKGDTYVSIQGFKAGAGHSNTLQVSTV
notes: as for B1
Turning to B2, in the series “purified protein [2]”, the Km was 0.281 (SEM 12%) mM and the kcat was determined as 20.1 s⁻¹.

B3: Tpi1p (Saccharomyces cerevisiae S288C) (protein)
chain: ARTFFVGGNFKLNGSKQSIKEIVERLNTASIPENVEVVICPPATYLDYSVSLVKKPQVTVGAQNAYLKASGAFTGENSVDQIKDVGAKWVILGHSERRSYFHEDDKFIADKTKFALGQGVGVILCIGETLEEKKAGKTLDVVERQLNAVLEEVKDWTNVVVAYEPVWAIGTGLAATPEDAQDIHASIRKFLASKLGDKAASELRILYGGSANGSNAVTFKDKADVDGFLVGGASLKPEFVDIINSRN
notes: as for B1
B3: in “purified protein [3]”, the Km is given as 6.45 (SEM 5%) mM.
